Data published in patent publication US20100256070A1.

Target: Diphtheria toxin anti-CD5 ScFv fusion protein bearing a granzyme B cleavage sequence

B1: mouse granzyme B (protein)
chain: IIGGHEVKPHSRPYMALLSIKDQQPEAICGGFLIREDFVLTAAHCEGSIINVTLGAHNIKEQEKTQQVIPMVKCIPHPDYNPKTFSNDIMLLKLKSKAKRTRAVRPLNLPRRNVNVKPGDVCYVAGWGRMAPMGKYSNTLQEVELTVQKDRECESYFKNRYNKTNQICAGDPKTKRASFRGDSGGPLVCKKVAAGIVSYGYKDGSPPRAFTKVSSFLSWIKKTMKSS
  in vitro cleavage by granzyme B (gel): only a small fraction of DT and PEA fusion proteins was cleaved
